Results published in article PMC3357956 (Nature structural & molecular biology, 2011).

Molecular target: the molecule itself
Test: thioflavin T fluorescence

B1: wild-type TDP46mer (synthetic TDP-43 peptide Gln286-Gln331) (peptide, UniProt Q13148 286-331, looked up)
peptide: QGGFGNSRGGGAGLGNNQGSNMGGGMNFGAFSINPAMMAAAQAALQ
binding result: binds
